Measurements from the supplement of paper PMC7125110.
± gives the standard error. For some assays here: This sample holds only a part of the variants without activity.

B1: glmS ribozyme (parent)
chain: AUAAAAGCGCCAGAACUACAGAAAUGUAGUUGACGAGGAGGAGGUUUAUCGAAUUUUCGGCGGAUGCCUCCAAA

Legend:
Settings in all cases: with glucosamine-6-phosphate
glucosamine-6-phosphate [1] = variants of: B1; experiment: kcat; higher = faster cleavage; RNA array
Outline: (§1)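 Barcoded glmS ribozyme variants on sequenced MiSeq chips were transcribed in situ by E. coli RNA polymerase and tracked through a hybridised Cy3 probe at 37 °C. Glucosamine-6-phosphate (40 μM to 10 mM) in HEPES/KCl/Mg(OAc)2 buffer was flowed in, and tiles were imaged over ~14 h. Signals were normalised to baseline and to non-cleaving reference variants; per-tile medians were fit to one- or two-exponential decays to give kobs. kcat and KM came from weighted Michaelis–Menten fits across concentrations.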

glucosamine-6-phosphate [2] = variants of: B1; experiment: self-cleavage kobs at 40 uM GlcN6P; higher = faster cleavage; RNA array
Outline: as §1

glucosamine-6-phosphate [3] = variants of: B1; experiment: self-cleavage kobs at 160 uM GlcN6P; higher = faster cleavage; RNA array
Outline: as §1

glucosamine-6-phosphate [4] = variants of: B1; experiment: self-cleavage kobs at 2500 uM GlcN6P; higher = faster cleavage; RNA array
Outline: as §1

glucosamine-6-phosphate [5] = variants of: B1; experiment: self-cleavage kobs at 10000 uM GlcN6P; higher = faster cleavage; RNA array
Outline: as §1

glucosamine-6-phosphate [6] = variants of: B1; experiment: KM; higher = weaker cofactor use; RNA array
Outline: as §1

glucosamine-6-phosphate [7] = variants of: B1; experiment: self-cleavage kobs at 640 uM GlcN6P; higher = faster cleavage; RNA array
Outline: as §1

| Variant | kcat (glucosamine-6-phosphate [1]) | self-cleavage kobs at 40 uM GlcN6P (glucosamine-6-phosphate [2]) | self-cleavage kobs at 160 uM GlcN6P (glucosamine-6-phosphate [3]) | self-cleavage kobs at 2500 uM GlcN6P (glucosamine-6-phosphate [4]) | self-cleavage kobs at 10000 uM GlcN6P (glucosamine-6-phosphate [5]) | KM (glucosamine-6-phosphate [6]) | self-cleavage kobs at 640 uM GlcN6P (glucosamine-6-phosphate [7]) |
| --- | --- | --- | --- | --- | --- | --- | --- |
| A14G A33G | < 1e-05 s⁻¹ | < 1e-05 s⁻¹ | < 1e-05 s⁻¹ | < 1e-05 s⁻¹ | < 1e-05 s⁻¹ |  |  |
| A14C U57C | 5.66e-05 ± 5.7e-07 s⁻¹ | < 1e-05 s⁻¹ |  | 3.68e-05 ± 1.3e-05 s⁻¹ | 4.96e-05 ± 7.4e-06 s⁻¹ | 1390 ± 73 µM |  |
| G13U G29U | 0.000324 ± 4.8e-05 s⁻¹ |  |  | 0.000161 ± 2.1e-05 s⁻¹ | 0.000234 ± 2.3e-05 s⁻¹ | 3430 ± 1000 µM | 4.23e-05 ± 9.2e-06 s⁻¹ |
| A14C A64G | 0.00265 ± 0.00066 s⁻¹ | 0.000141 ± 3e-05 s⁻¹ | 0.000434 ± 0.0002 s⁻¹ | 0.00221 ± 0.00047 s⁻¹ | 0.00267 ± 0.00068 s⁻¹ | 884 ± 370 µM | 0.000733 ± 0.00024 s⁻¹ |
| A14C U57A U69A | 3.51e-05 ± 1.3e-05 s⁻¹ |  |  |  |  |  | 4.77e-05 ± 2.2e-05 s⁻¹ |
| A14C U31C | 0.00408 ± 0.0011 s⁻¹ | 8.42e-05 ± 1.1e-05 s⁻¹ | 0.000307 ± 4.3e-05 s⁻¹ | 0.00178 ± 0.00024 s⁻¹ | 0.00399 ± 0.00045 s⁻¹ | 2330 ± 860 µM | 0.000748 ± 9e-05 s⁻¹ |
| G13U U56A C67U | 0.000254 ± 9.5e-05 s⁻¹ |  |  | 0.000115 ± 3.1e-05 s⁻¹ | 0.000167 ± 3.2e-05 s⁻¹ |  |  |
| A14G A36G | 4.89e-05 ± 6.4e-07 s⁻¹ |  |  | 3.69e-05 ± 1.2e-05 s⁻¹ | 4.49e-05 ± 6.3e-06 s⁻¹ | 854 ± 82 µM |  |
| A14C G44C C67G | 0.00155 ± 0.00052 s⁻¹ | 3.15e-05 ± 1.2e-05 s⁻¹ |  | 0.000548 ± 0.00015 s⁻¹ | 0.00139 ± 0.00022 s⁻¹ |  | 0.000389 ± 0.0001 s⁻¹ |
| G13U A53G | 0.0022 ± 0.00047 s⁻¹ | 2.14e-05 ± 9.7e-06 s⁻¹ | 8.17e-05 ± 1e-05 s⁻¹ | 0.000631 ± 9.5e-05 s⁻¹ | 0.00168 ± 0.0002 s⁻¹ | 4460 ± 1300 µM | 0.00029 ± 3.4e-05 s⁻¹ |
| G13U A53U | 0.00139 ± 4.1e-05 s⁻¹ |  | 5.58e-05 ± 2e-05 s⁻¹ | 0.000584 ± 0.00011 s⁻¹ | 0.00103 ± 0.00011 s⁻¹ | 3550 ± 190 µM | 0.000213 ± 3.9e-05 s⁻¹ |
| G13U U49G | 1.85e-05 ± 6.3e-06 s⁻¹ | < 1e-05 s⁻¹ | < 1e-05 s⁻¹ |  |  |  |  |
| G13U U30G | 0.000187 ± 3.9e-05 s⁻¹ |  |  | 0.000105 ± 1.2e-05 s⁻¹ | 0.000136 ± 2e-05 s⁻¹ | 2660 ± 1200 µM | 2.49e-05 ± 9.4e-06 s⁻¹ |
| G13U G63U | < 1e-05 s⁻¹ | < 1e-05 s⁻¹ |  |  |  |  |  |
| A14C U47G | 0.00101 ± 0.00014 s⁻¹ | 2.31e-05 ± 1.1e-05 s⁻¹ | 6.35e-05 ± 1.2e-05 s⁻¹ | 0.000422 ± 8.2e-05 s⁻¹ | 0.000874 ± 0.00012 s⁻¹ | 2500 ± 550 µM | 0.000208 ± 3e-05 s⁻¹ |
| G13U A53G C68G | 4.16e-05 ± 3.1e-06 s⁻¹ |  |  | 4.16e-05 ± 1.5e-05 s⁻¹ |  |  |  |
| A14C U30C | 1.53e-05 ± 3.1e-07 s⁻¹ |  | < 1e-05 s⁻¹ |  |  | 151 ± 50 µM |  |
| A14G A15U C68G | 8.39e-05 ± 2.5e-05 s⁻¹ |  | 5.83e-05 ± 2.5e-05 s⁻¹ | 9.14e-05 ± 2.3e-05 s⁻¹ | 7.97e-05 ± 2.3e-05 s⁻¹ |  | 4.44e-05 ± 1.3e-05 s⁻¹ |

| Variant | kcat (glucosamine-6-phosphate [1]) | self-cleavage kobs at 40 uM GlcN6P (glucosamine-6-phosphate [2]) | self-cleavage kobs at 160 uM GlcN6P (glucosamine-6-phosphate [3]) | self-cleavage kobs at 2500 uM GlcN6P (glucosamine-6-phosphate [4]) | self-cleavage kobs at 10000 uM GlcN6P (glucosamine-6-phosphate [5]) | KM (glucosamine-6-phosphate [6]) | self-cleavage kobs at 640 uM GlcN6P (glucosamine-6-phosphate [7]) |
| --- | --- | --- | --- | --- | --- | --- | --- |
| A14C A52U | 8.73e-05 ± 5e-06 s⁻¹ |  |  | 5.13e-05 ± 1.4e-05 s⁻¹ | 7.28e-05 ± 1e-05 s⁻¹ | 1920 ± 430 µM |  |
| G13C U47G | 3.48e-05 ± 2.1e-06 s⁻¹ | < 1e-05 s⁻¹ |  |  | 3.53e-05 ± 8.5e-06 s⁻¹ |  |  |
| A14G G37A U54A | 0.00578 ± 0.0027 s⁻¹ | 7.89e-05 ± 1.6e-05 s⁻¹ |  | 0.00178 ± 0.00043 s⁻¹ | 0.00406 ± 0.00062 s⁻¹ |  | 0.000505 ± 0.00013 s⁻¹ |
| A14C A48C | 5.79e-05 ± 1.1e-05 s⁻¹ |  |  | 4.95e-05 ± 1.2e-05 s⁻¹ | 4.92e-05 ± 1.2e-05 s⁻¹ |  |  |
| G13U U54G | 0.00069 ± 0.00021 s⁻¹ | 3.24e-05 ± 1.1e-05 s⁻¹ | 9.27e-05 ± 1.6e-05 s⁻¹ | 0.000363 ± 6.4e-05 s⁻¹ | 0.000964 ± 0.00015 s⁻¹ |  | 0.000263 ± 6e-05 s⁻¹ |
| G13U A15U | 0.000299 ± 2e-05 s⁻¹ |  |  | 9.42e-05 ± 1.4e-05 s⁻¹ | 0.000194 ± 1.9e-05 s⁻¹ | 5440 ± 760 µM |  |
| G13U A15G | 0.00265 ± 0.0011 s⁻¹ |  | 0.000116 ± 5e-05 s⁻¹ | 0.000584 ± 0.00014 s⁻¹ | 0.00191 ± 0.00025 s⁻¹ |  | 0.000388 ± 7.5e-05 s⁻¹ |
| G13U A52U | 1.58e-05 ± 2.6e-06 s⁻¹ | < 1e-05 s⁻¹ | < 1e-05 s⁻¹ |  |  |  |  |
| A14C G29U | 0.000857 ± 0.00017 s⁻¹ | 4.05e-05 ± 1.2e-05 s⁻¹ | 5.99e-05 ± 1.3e-05 s⁻¹ | 0.000556 ± 8.5e-05 s⁻¹ | 0.000697 ± 0.0001 s⁻¹ | 1650 ± 550 µM | 0.000267 ± 3.9e-05 s⁻¹ |
| G13U A14C | 0.00021 ± 2.8e-05 s⁻¹ |  |  | 4.71e-05 ± 9.7e-06 s⁻¹ | 0.00011 ± 2e-05 s⁻¹ | 8960 ± 1900 µM |  |
| A14C G40U | 0.000718 ± 9.8e-05 s⁻¹ |  |  | 0.000352 ± 6.1e-05 s⁻¹ | 0.000555 ± 5.2e-05 s⁻¹ | 2800 ± 790 µM | 0.000144 ± 2.2e-05 s⁻¹ |
| G13U C68A C70G | 2.66e-05 ± 2.1e-06 s⁻¹ | < 1e-05 s⁻¹ |  |  | < 1e-05 s⁻¹ | 139 ± 65 µM |  |
| A14C G66C | 9.53e-05 ± 3.1e-06 s⁻¹ |  |  | 5.12e-05 ± 1.5e-05 s⁻¹ | 7.85e-05 ± 9.8e-06 s⁻¹ | 2140 ± 260 µM |  |
| A14C C50A | < 1e-05 s⁻¹ |  |  |  |  |  |  |
| A14C C50U | 1.4e-05 ± 6.4e-06 s⁻¹ |  |  |  |  |  |  |
| G13C U45A | 0.000315 ± 0.00011 s⁻¹ |  |  | 9.3e-05 ± 2.3e-05 s⁻¹ | 0.000213 ± 3.9e-05 s⁻¹ |  | 6.93e-05 ± 3.2e-05 s⁻¹ |
| G13C U45G | 3.74e-05 ± 3.6e-06 s⁻¹ | < 1e-05 s⁻¹ |  |  | 3.22e-05 ± 1.2e-05 s⁻¹ |  |  |
